Biological target: T1, B7 E180D (mouse, UniProt Q00609 38-306, E180D)
T1 sequence (looked up): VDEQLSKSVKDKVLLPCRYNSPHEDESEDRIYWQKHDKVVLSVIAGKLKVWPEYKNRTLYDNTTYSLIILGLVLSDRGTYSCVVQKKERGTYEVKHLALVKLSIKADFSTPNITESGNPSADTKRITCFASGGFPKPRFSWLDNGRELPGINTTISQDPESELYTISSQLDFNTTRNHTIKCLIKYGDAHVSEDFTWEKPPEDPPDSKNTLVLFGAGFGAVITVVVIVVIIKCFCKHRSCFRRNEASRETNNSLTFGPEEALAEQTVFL
Test: flow cytometry on cells

B1: CD28Ig (Fc fusion, mouse, UniProt P31041 20-150, looked up)
chain: NKILVKQSPLLVVDSNEVSLSCRYSYNLLAKEFRASLYKGVNSDVEVCVGNGNFTYQPQFRSNAEFNCDGDFDNETVTFRLWNLHVNHTDIYFCKIEFMYPPPYLDNERSNGTIIHIKEKHLCHTQSSPKL
% wild-type B7 binding (normalised to anti-B7 mAb 10.16A.1): 68%
MF (mean fluorescence, control subtracted): 38 MF
